Test results reported in US20220259593A1, “CONTROL OF MAMMALIAN GENE DOSAGE USING CRISPR” (The Regents of the University of California, priority 2019, published 2022).
Where a chain is given by its changes, count along the chain named.

B1: cr794 (nucleic acid)
guide: GTTTAAGAGCTAAGCTGGAAACAGCATAGCAAGTTTAAATAAGGCTAGTCCGTTATCAACTTGAAAAAGTGCCACGGAGTCCGTGGT
modifications: listed as DNA, chemistry not fully specified
B2: cr775 (nucleic acid)
guide: B1 guide with A31G, G33T, C72G, G76C, C82G, G86C
modifications: listed as DNA, chemistry not fully specified
B3: cr126 (nucleic acid)
guide: B1 guide with G33A, A47C, G63T, C72G, G76C, C82G, G86C
modifications: listed as DNA, chemistry not fully specified
B4: cr799 (nucleic acid)
guide: B1 guide with C51T, C72G, G76C, C82G, G86C
modifications: listed as DNA, chemistry not fully specified
B5: cr804 (nucleic acid)
guide: B1 guide with T34C, C72A, G76C, C82G, G86T
modifications: listed as DNA, chemistry not fully specified
B6: cr356 (nucleic acid)
guide: B1 guide with A59C, T70G, C72A, G76C, C82G, G86T
modifications: listed as DNA, chemistry not fully specified
B7: cr569 (nucleic acid)
guide: B1 guide with A28G, A47C, C57G, C72G, G76C, C82G, G86C
modifications: listed as DNA, chemistry not fully specified
B8: cr545 (nucleic acid)
guide: B1 guide with G29A, T54C, C57A, C72G, G76C, C82G, G86C
modifications: listed as DNA, chemistry not fully specified
B9: cr432 (nucleic acid)
guide: B1 guide with T34C, C60G, G69C, C72G, G76C, C82G, G86C
modifications: listed as DNA, chemistry not fully specified
B10: cr296 (nucleic acid)
guide: B1 guide with C72G, C73T, G77C, C81G, G85A, G86C
modifications: listed as DNA, chemistry not fully specified
B11: cr473 (nucleic acid)
guide: B1 guide with T53A, C57A, A64C, C72G, G76C, C82G, G86C
modifications: listed as DNA, chemistry not fully specified
B12: cr249 (nucleic acid)
guide: B1 guide with T54G, C57T, C72G, G76C, T80A, C82G, G86C
modifications: listed as DNA, chemistry not fully specified
B13: cr459 (nucleic acid)
guide: B1 guide with A31G, A58T, C72G, G76C, C82G, G86C
modifications: listed as DNA, chemistry not fully specified
B14: cr856 (nucleic acid)
guide: B1 guide with C45A, G48T, C60A, G69T, C72G, A74T, G76C, C82G, T84A, G86C
modifications: listed as DNA, chemistry not fully specified
B15: cr755 (nucleic acid)
guide: B1 guide with T34C, C72G, A74T, G76C, C82G, T84A, G86C
modifications: listed as DNA, chemistry not fully specified
B16: cr813 (nucleic acid)
guide: B1 guide with A58T, C72G, G76C, C82G, G86C
modifications: listed as DNA, chemistry not fully specified
B17: cr527 (nucleic acid)
guide: B1 guide with T35G, C72G, G76C, C82G, G86C
modifications: listed as DNA, chemistry not fully specified
B18: cr200 (nucleic acid)
guide: B1 guide with G33A, C72G, G76C, C82G, G86C, T87C
modifications: listed as DNA, chemistry not fully specified
B19: cr687 (nucleic acid)
guide: B1 guide with C72G, G76T, C82G, G86C
modifications: listed as DNA, chemistry not fully specified
B20: cr404 (nucleic acid)
guide: B1 guide with A58C, A65T, C72G, G76C, C82G, G86C
modifications: listed as DNA, chemistry not fully specified
B21: cr523 (nucleic acid)
guide: B1 guide with T34C, C72T, G76C, C82G, G86A
modifications: listed as DNA, chemistry not fully specified
B22: cr088 (nucleic acid)
guide: B1 guide with G1A, A6G, C72G, G76C, C82G, G86C
modifications: listed as DNA, chemistry not fully specified
B23: cr343 (nucleic acid)
guide: B1 guide with A59T, C60G, T61A, T62A, A68T, T70A, C72G, G76C, C82G, G86C
modifications: listed as DNA, chemistry not fully specified
B24: cr201 (nucleic acid)
guide: B1 guide with G43A, C51T, C72G, G76C, C82G, G86C
modifications: listed as DNA, chemistry not fully specified
B25: cr895 (nucleic acid)
guide: B1 guide with G33T, A64T, C72G, G76C, C82G, G86C
modifications: listed as DNA, chemistry not fully specified
B26: cr966 (nucleic acid)
guide: B1 guide with C60G, G69C, C72G, C75T, G83A, G86C
modifications: listed as DNA, chemistry not fully specified
B27: cr756 (nucleic acid)
guide: B1 guide with C45T, G48A, C72G, C75A, G76C, C82G, G83T, G86C
modifications: listed as DNA, chemistry not fully specified
B28: cr003 (nucleic acid)
guide: B1 guide with G1T, C72G, G76C, C82G, G86C
modifications: listed as DNA, chemistry not fully specified
B29: cr398 (nucleic acid)
guide: B1 guide with A37G, C72G, G76C, C82G, G86C
modifications: listed as DNA, chemistry not fully specified
B30: cr127 (nucleic acid)
guide: B1 guide with A42T, A65G, C72G, G76C, G79C, C82G, G86C
modifications: listed as DNA, chemistry not fully specified
B31: cr315 (nucleic acid)
guide: B1 guide with G43A, C51T, T62G, A67C, C72G, A74C, G76C, C82G, T84G, G86C
modifications: listed as DNA, chemistry not fully specified
B32: cr924 (nucleic acid)
guide: B1 guide with G43A, C51T, C72G, A74G, G76C, C82G, T84C, G86C
modifications: listed as DNA, chemistry not fully specified
B33: cr196 (nucleic acid)
guide: B1 guide with C72G, C75G, G76C, G77C, C81G, C82G, G83C, G86C
modifications: listed as DNA, chemistry not fully specified
B34: cr471 (nucleic acid)
guide: B1 guide with C72T, G76A, G77C, C81G, C82T, G86A
modifications: listed as DNA, chemistry not fully specified
B35: cr192 (nucleic acid)
guide: B1 guide with C72G, A74C, G76C, G77C, C81G, C82G, T84G, G86C
modifications: listed as DNA, chemistry not fully specified
B36: cr252 (nucleic acid)
guide: B1 guide with G52A, C72G, G76C, C82G, G86C
modifications: listed as DNA, chemistry not fully specified
B37: cr182 (nucleic acid)
guide: B1 guide with G33T, C72G, G76C, C82G, G86C
modifications: listed as DNA, chemistry not fully specified
B38: cr351 (nucleic acid)
guide: B1 guide with A47C, C57A, G63A, C72G, G76C, C82G, G86C
modifications: listed as DNA, chemistry not fully specified
B39: cr623 (nucleic acid)
guide: B1 guide with A59C, C60T, T61G, A68C, G69A, T70G, C72G, G76C, C82G, G86C
modifications: listed as DNA, chemistry not fully specified
B40: cr689 (nucleic acid)
guide: B1 guide with T34C, A55T, A65T, C72G, G76C, C82G, G86C
modifications: listed as DNA, chemistry not fully specified
B41: cr634 (nucleic acid)
guide: B1 guide with A32G, A58G, C72G, G76C, C82G, G86C
modifications: listed as DNA, chemistry not fully specified

System: K562 CRISPRi cells
Assay: Constant region variant library pooled growth screen, K562
Assay type: cell-based, human
Settings: sgRNA constant region variants, un-modified constant region cr995
Summary of the method: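 K562 CRISPRi, duplicate transductions; puromycin 1 d 0.75 μg/mL then 1 d 0.85 μg/mL; >2000× coverage in spinner flasks; harvests at 4-8 d growth. Activity = phenotype ÷ phenotype with unmodified constant region.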

[1] = relative to the original, CRISPRi
[2] = activity relative to the original

| Molecule | Mean relative activity [1] | Mean relative activity [2] |
| --- | --- | --- |
| B1 | 0.411 |  |
| B2 | 0.4052 |  |
| B3 | 0.4034 |  |
| B4 | 0.4031 |  |
| B5 | 0.4025 |  |
| B6 |  | 1.042 |
| B7 | 0.3992 |  |
| B8 | 0.3936 |  |
| B9 | 0.3923 |  |
| B10 | 0.3911 |  |
| B11 | 0.3892 |  |
| B12 | 0.3886 |  |
| B13 | 0.3837 |  |
| B14 | 0.3826 |  |
| B15 | 0.3814 |  |
| B16 | 0.3803 |  |
| B17 | 0.3802 |  |
| B18 | 0.3799 |  |
| B19 |  | 1.042 |
| B20 | 0.3784 |  |
| B21 | 0.3746 |  |

| Molecule | Mean relative activity [1] | Mean relative activity [2] |
| --- | --- | --- |
| B22 | 0.3745 |  |
| B23 | 0.3733 |  |
| B24 | 0.3731 |  |
| B25 | 0.3709 |  |
| B26 | 0.3699 |  |
| B27 |  | 1.041 |
| B28 | 0.3678 |  |
| B29 | 0.3667 |  |
| B30 | 0.3659 |  |
| B31 | 0.3642 |  |
| B32 | 0.3638 |  |
| B33 | 0.3626 |  |
| B34 | 0.3625 |  |
| B35 | 0.3609 |  |
| B36 | 0.3581 |  |
| B37 | 0.3559 |  |
| B38 | 0.3557 |  |
| B39 |  | 1.041 |
| B40 | 0.3547 |  |
| B41 | 0.3508 |  |
